The target of this assay is Mycobacterium tuberculosis RsdA^1-94 (Mycobacterium tuberculosis, UniProt P9WJ71 1-94). Description: SPR. In general terms: In SPR one partner is held on a chip, and binding of the other changes the refractive index at the surface.

Experimental findings from PMC3597663 (Nucleic Acids Research, 2013) are described below.

Chain of Mycobacterium tuberculosis RsdA^1-94 (P9WJ71 1-94): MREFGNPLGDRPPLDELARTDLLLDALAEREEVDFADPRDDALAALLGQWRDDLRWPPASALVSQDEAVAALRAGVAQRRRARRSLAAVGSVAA

B1: -35 promoter binding domain of Mycobacterium tuberculosis σ^D (σ^D4), residues 141-212 (domain or fragment)
chain: MAIEADSVTRMNELLEILPAKQREILILRVVVGLSAEETAAAVGSTTGAVRVAQHRALQRLKDEIVAAGDYA
On to B1, for which the affinity, expressed as Kd, was 10.3 ± 3.5 µM.

A word on the Kd: it is a measure of binding affinity in units of concentration. A high value points to a looser complex.
